The target in assay [1] is recombinant active human PAI-1 (human) (UniProt P05121). Briefly: cell-based or functional assay.
In assay [2] the target is latent human PAI-1 (human) (UniProt P05121). Nature of the assay: ELISA, latent human PAI-1 on the plate. In general terms: In an ELISA, binding on a coated surface is turned into a signal by an enzyme label.
For assay [3], the target named is tPA-monkey PAI-1 complex (monkey). Briefly: ELISA, tPA-monkey PAI-1 complex on the plate.
Assay [4] has as its target human PAI-1 in complex with tPA (human) (UniProt P05121). Briefly: ELISA, tPA-PAI-1 complex on the plate.
For assay [5], the target named is active human PAI-1 in complex with vitronectin (human) (UniProt P05121). Nature of the assay: ELISA, VTN-PAI-1 complex on the plate.
In assay [6] the target is human PAI-1 in complex with uPA (human) (UniProt P05121). Briefly: ELISA, uPA-PAI-1 complex on the plate.
In assay [7] the target is latent monkey PAI-1 (monkey) (UniProt G7P138). Briefly: ELISA, latent monkey PAI-1 on the plate.
In assay [8] the target is uPA-monkey PAI-1 complex (monkey) (UniProt P00749). Briefly: ELISA, uPA-monkey PAI-1 complex on the plate.
Assay [9] deals with active PAI-1 in human plasma (human) (UniProt P05121). Nature of the assay: ELISA: inhibition of the capture of active PAI-1 of human plasma on immobilised uPA (Example 9).
Assay [10] addresses active PAI-1 in monkey plasma (cynomolgus monkey) (UniProt G7P138). Nature of the assay: ELISA: inhibition of the capture of active PAI-1 of monkey plasma on immobilised uPA (Example 9).
For assay [11], the target named is active monkey PAI-1 in complex with vitronectin (monkey). Nature of the assay: ELISA, VTN-monkey PAI-1 complex on the plate.
active monkey PAI-1 in complex with vitronectin (monkey), sequence (P04004 20-478, one chain of several): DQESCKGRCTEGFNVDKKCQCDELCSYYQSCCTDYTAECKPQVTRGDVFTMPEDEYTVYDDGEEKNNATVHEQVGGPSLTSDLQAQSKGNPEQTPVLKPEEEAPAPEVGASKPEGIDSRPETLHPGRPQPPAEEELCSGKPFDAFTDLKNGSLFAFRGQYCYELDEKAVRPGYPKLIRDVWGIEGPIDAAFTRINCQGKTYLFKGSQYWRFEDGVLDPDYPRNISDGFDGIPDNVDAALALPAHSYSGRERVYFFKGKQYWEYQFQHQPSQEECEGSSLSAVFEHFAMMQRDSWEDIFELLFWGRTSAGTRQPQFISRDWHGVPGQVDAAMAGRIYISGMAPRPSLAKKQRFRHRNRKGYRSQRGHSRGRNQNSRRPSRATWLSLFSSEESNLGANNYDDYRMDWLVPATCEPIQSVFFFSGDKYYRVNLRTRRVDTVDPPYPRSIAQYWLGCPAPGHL

MEDI-579 (antibody), sequence (VH): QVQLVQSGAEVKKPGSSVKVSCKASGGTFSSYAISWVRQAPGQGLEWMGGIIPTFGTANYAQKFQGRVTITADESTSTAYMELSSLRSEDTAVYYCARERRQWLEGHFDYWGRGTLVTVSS
MEDI-579 (antibody), sequence (VL): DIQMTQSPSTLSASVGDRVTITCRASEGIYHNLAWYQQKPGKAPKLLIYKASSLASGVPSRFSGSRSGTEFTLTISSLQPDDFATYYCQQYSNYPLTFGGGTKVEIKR
tPA-monkey PAI-1 complex (monkey), sequence (P00750 36-562, one chain of several): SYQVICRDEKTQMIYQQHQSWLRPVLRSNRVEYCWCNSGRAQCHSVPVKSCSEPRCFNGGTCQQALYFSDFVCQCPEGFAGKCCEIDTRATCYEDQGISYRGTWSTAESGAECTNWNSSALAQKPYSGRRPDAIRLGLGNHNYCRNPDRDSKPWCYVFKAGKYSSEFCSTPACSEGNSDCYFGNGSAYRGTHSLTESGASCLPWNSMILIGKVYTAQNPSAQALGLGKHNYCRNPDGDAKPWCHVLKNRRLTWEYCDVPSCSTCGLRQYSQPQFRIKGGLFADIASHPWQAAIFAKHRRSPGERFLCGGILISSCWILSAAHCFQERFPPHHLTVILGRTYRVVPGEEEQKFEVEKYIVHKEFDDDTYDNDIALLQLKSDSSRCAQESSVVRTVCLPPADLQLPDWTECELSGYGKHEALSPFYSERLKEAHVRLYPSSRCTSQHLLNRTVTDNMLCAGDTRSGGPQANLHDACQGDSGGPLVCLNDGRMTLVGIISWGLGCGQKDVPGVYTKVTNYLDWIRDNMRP

What is called EC50 is the concentration needed to bring the measured effect to its halfway point. As usually defined, the IC50 is the concentration at which inhibition is half-maximal. For MEDI-579 (antibody), the EC50 value, taking the activity of uPA as an indicator (cleavage of a fluorogenic uPA substrate peptide) in [1] was determined as 42.1 ng/mL. The EC50 stood at 22.1 ng/mL in assay [2]; 4.3 ng/mL in assay [3]; 3.2 ng/mL in assay [4]; 5.2 ng/mL in assay [5]; 6.1 ng/mL in [6]; 48.2 ng/mL in assay [7]. Moreover, the 50% effective concentration (EC50) came out at 5.4 ng/mL in assay [8] and 4.1 ng/mL in [11]. Further, the IC50 was determined as 0.73 ng/mL in [9] and 0.83 ng/mL in assay [10].

Values taken from patent publication US20160369008A1.
